# Measured values reported in publication PMC7062184, “A lipoprotein lipase–GPI-anchored high-density lipoprotein–binding protein 1 fusion lowers triglycerides in mice: Implications for managing familial chylomicronemia syndrome” (The Journal of Biological Chemistry, 2019).
# T1: LPL(28–475)-(G4S)4-hGPIHBP1(21–151)-FLAG-His6-Avi (human, biotin on the C-terminal AviTag (BirA) in ELISA and SPR)
# T1 chain: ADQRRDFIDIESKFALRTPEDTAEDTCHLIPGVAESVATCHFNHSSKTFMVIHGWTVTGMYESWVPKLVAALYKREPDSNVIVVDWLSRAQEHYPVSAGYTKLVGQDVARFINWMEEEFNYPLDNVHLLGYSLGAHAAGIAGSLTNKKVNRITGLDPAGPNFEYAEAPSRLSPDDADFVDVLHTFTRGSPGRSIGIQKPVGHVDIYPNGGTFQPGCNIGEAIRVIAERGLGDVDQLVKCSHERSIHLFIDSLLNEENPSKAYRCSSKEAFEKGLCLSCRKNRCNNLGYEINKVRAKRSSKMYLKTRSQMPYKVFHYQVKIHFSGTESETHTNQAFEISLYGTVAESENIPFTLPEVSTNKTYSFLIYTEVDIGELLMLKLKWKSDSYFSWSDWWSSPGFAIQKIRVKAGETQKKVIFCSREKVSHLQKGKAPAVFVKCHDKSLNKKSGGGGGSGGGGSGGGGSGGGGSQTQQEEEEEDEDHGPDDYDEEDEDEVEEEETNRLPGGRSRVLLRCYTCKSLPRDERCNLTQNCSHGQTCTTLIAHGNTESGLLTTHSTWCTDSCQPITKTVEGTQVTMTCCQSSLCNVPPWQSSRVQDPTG
# T2: LPL (untagged human lipoprotein lipase) (human)
# T2 chain: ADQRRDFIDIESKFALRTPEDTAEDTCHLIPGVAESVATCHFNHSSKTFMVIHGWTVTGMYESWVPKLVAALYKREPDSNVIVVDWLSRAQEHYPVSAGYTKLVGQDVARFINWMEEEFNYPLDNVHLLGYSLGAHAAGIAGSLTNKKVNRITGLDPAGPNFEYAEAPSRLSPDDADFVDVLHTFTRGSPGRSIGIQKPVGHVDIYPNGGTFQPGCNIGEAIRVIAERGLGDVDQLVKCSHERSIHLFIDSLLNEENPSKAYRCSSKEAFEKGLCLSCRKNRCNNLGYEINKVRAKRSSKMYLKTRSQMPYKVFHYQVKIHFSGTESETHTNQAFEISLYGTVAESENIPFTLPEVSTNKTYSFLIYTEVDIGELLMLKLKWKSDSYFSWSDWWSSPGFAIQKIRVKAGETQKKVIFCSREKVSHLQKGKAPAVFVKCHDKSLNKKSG
# T3: His6-LPL-HA-FLAG (human)
# T3 chain: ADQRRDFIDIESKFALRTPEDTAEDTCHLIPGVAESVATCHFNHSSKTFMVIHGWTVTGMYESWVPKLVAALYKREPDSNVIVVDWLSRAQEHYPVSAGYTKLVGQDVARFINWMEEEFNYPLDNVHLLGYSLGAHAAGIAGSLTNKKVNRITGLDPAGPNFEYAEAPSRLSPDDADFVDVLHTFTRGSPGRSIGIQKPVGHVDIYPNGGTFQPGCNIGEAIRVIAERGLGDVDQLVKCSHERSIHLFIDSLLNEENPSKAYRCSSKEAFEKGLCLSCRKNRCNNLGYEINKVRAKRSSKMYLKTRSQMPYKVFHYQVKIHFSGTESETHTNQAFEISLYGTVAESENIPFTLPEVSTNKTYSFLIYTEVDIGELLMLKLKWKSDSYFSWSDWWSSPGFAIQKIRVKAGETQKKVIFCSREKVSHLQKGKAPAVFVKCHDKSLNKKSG
# B1: Soluble GPIHBP1(21–151)-FLAG-His6-Avi (domain or fragment, human)
# chain: QTQQEEEEEDEDHGPDDYDEEDEDEVEEEETNRLPGGRSRVLLRCYTCKSLPRDERCNLTQNCSHGQTCTTLIAHGNTESGLLTTHSTWCTDSCQPITKTVEGTQVTMTCCQSSLCNVPPWQSSRVQDPTG
# modifications: biotin on the C-terminal AviTag (BirA) where immobilised or labelled with streptavidin-D2; nonbiotinylated as free competitor in TR-FRET
# notes: human GPIHBP1, soluble fragment of residues 21–151; also called GPIHBP1-Avi; hGPIHBP1-Avi; source: HEK293T, transfected, purified (Ni-NTA); also co-expressed with LPL and LMF1 in HEK293T and purified as the complex (Ni-NTA, SEC); not shown: AviTag, C-terminal, kept
# B2: His6-TEV-LPL (N-terminally His6-tagged human lipoprotein lipase) (enzyme)
# chain: ADQRRDFIDIESKFALRTPEDTAEDTCHLIPGVAESVATCHFNHSSKTFMVIHGWTVTGMYESWVPKLVAALYKREPDSNVIVVDWLSRAQEHYPVSAGYTKLVGQDVARFINWMEEEFNYPLDNVHLLGYSLGAHAAGIAGSLTNKKVNRITGLDPAGPNFEYAEAPSRLSPDDADFVDVLHTFTRGSPGRSIGIQKPVGHVDIYPNGGTFQPGCNIGEAIRVIAERGLGDVDQLVKCSHERSIHLFIDSLLNEENPSKAYRCSSKEAFEKGLCLSCRKNRCNNLGYEINKVRAKRSSKMYLKTRSQMPYKVFHYQVKIHFSGTESETHTNQAFEISLYGTVAESENIPFTLPEVSTNKTYSFLIYTEVDIGELLMLKLKWKSDSYFSWSDWWSSPGFAIQKIRVKAGETQKKVIFCSREKVSHLQKGKAPAVFVKCHDKSLNKKSG
# notes: human lipoprotein lipase; also called His6-LPL; hLPL; not shown: His6, N-terminal, kept
# B3: His6-LPL-HA-FLAG (enzyme, human)
# chain: ADQRRDFIDIESKFALRTPEDTAEDTCHLIPGVAESVATCHFNHSSKTFMVIHGWTVTGMYESWVPKLVAALYKREPDSNVIVVDWLSRAQEHYPVSAGYTKLVGQDVARFINWMEEEFNYPLDNVHLLGYSLGAHAAGIAGSLTNKKVNRITGLDPAGPNFEYAEAPSRLSPDDADFVDVLHTFTRGSPGRSIGIQKPVGHVDIYPNGGTFQPGCNIGEAIRVIAERGLGDVDQLVKCSHERSIHLFIDSLLNEENPSKAYRCSSKEAFEKGLCLSCRKNRCNNLGYEINKVRAKRSSKMYLKTRSQMPYKVFHYQVKIHFSGTESETHTNQAFEISLYGTVAESENIPFTLPEVSTNKTYSFLIYTEVDIGELLMLKLKWKSDSYFSWSDWWSSPGFAIQKIRVKAGETQKKVIFCSREKVSHLQKGKAPAVFVKCHDKSLNKKSG
# notes: human lipoprotein lipase; Used as the complex with biotinylated hGPIHBP1-Avi in the TR-FRET assay; also called His6-hLPL-HA-FLAG; source: HEK293T, co-transfected with GPIHBP1 and LMF1, complex purified (Ni-NTA, SEC); not shown: His6, N-terminal, kept; HA, C-terminal, kept; FLAG, C-terminal, kept
# Key:
# [1] = molecular target: T1, LPL(28–475)-(G4S)4-hGPIHBP1(21–151)-FLAG …; assay: cell-based or functional assay
# [2] = molecular target: B2; assay: cell-based or functional assay
# [3] = molecular target: T2, LPL (untagged human lipoprotein lipase); assay: cell-based or functional assay
# His6-LPL-HA-FLAG [4] = molecular target: T3, His6-LPL-HA-FLAG; assay: FRET; dissociation of LPL(HA)-GPIHBP1(Avi) complex (10 nM)
# His6-LPL-HA-FLAG [5] = molecular target: T3, His6-LPL-HA-FLAG; assay: FRET; competition: dissociation of LPL(HA)/GPIHBP1(Avi) complex
# His6-LPL-HA-FLAG [6] = molecular target: T3, His6-LPL-HA-FLAG; assay: FRET
# His6-LPL-HA-FLAG [7] = molecular target: B3; assay: FRET or BRET; TR-FRET; 10 nM His6-hLPL-HA-FLAG/biotinylated hGPIHBP1-Avi complex challenged with 1–1000 nM nonbiotinylated ANGPTL4, ANGPTL3 or GPIHBP1, 1 h room temperature; 20 mM HEPES pH 7.4, 100 mM NaCl, 10% heat-inactivated FBS, 5 mM CaCl2; anti-HA-Tb and streptavidin-D2; details: both partners purified
# [8] = molecular target: B2; assay: SEC; His6-LPL, GPIHBP1 and LMF1 co-transfected 3:1:1 in HEK293T; complex captured from the medium by Ni-affinity, then Superdex 200 in 10 mM Tris pH 7.5, 300 mM NaCl; eluted at ~75 kDa; details: both partners purified
# [9] = molecular target: B1; assay: ELISA; 10 nM LPL/GPIHBP1 complex or fusion, biotinylated at the C-terminal AviTag of GPIHBP1, incubated with ANGPTL4 (12-point 2-fold dilution from 100 nM), then applied to a streptavidin-coated MSD plate; LPL and ANGPTL4 detected with specific antibodies; details: both partners purified
# [10] = molecular target: B1; assay: FRET or BRET; TR-FRET; 10 nM His6-hLPL-HA-FLAG/biotinylated hGPIHBP1-Avi complex challenged with 1–1000 nM nonbiotinylated ANGPTL4, ANGPTL3 or GPIHBP1, 1 h room temperature; 20 mM HEPES pH 7.4, 100 mM NaCl, 10% heat-inactivated FBS, 5 mM CaCl2; anti-HA-Tb and streptavidin-D2; details: both partners purified
binder,measurement,setting,value
ANGPTL4(26–406)-FLAG-His6-Avi (natural protein) QPGPVQSKSPRFASWDEMNVLAHGLLQLGQGLREHAERTRSQLSALERRLSACGSACQGTEGSTDLPLAPESRVDPEVLHSLQTQLKAQNSRIQQLFHKVAQQQRHLEKQHLRIQHLQSQFGLLDHKHLDHEVAKPARRKRLPEMAQPVDPAHNVSRLHRLPRDCQELFQVGERQSGLFEIQPQGSPPFLVNCKMTSDGGWTVIQRRHDGSVDFNRPWEAYKAGFGDPHGEFWLGLEKVHSITGDRNSRLAVQLRDWDGNAELLQFSVHLGGEDTAYSLQLTAPVAGQLGATTVPPSGLSVPFSTWDQDHDLRRDKNCAKSLSGGWWFGTCSHSNLNGQYFRSIPQQRQKLKKGIFWKTWRGRYYPLQATTMLIQPMAAEAAS,"IC50 of ANGPTL4-mediated inactivation of 10 nM fusion protein against that of LPL alone, hydrolysis of VLDL",[1],36 fold
same,"IC50 of ANGPTL4-mediated inactivation of 10 nM fusion protein against that of the coexpressed LPL/GPIHBP1 complex, hydrolysis of VLDL",[1],6 fold
same,"IC50 of ANGPTL4-mediated inactivation of 10 nM coexpressed LPL/GPIHBP1 complex, hydrolysis of VLDL",[2],19 nM
same,"IC50 of ANGPTL4-mediated inactivation of 10 nM LPL alone, hydrolysis of VLDL",[3],3 nM
same,IC50,His6-LPL-HA-FLAG [4],10 nM
same,IC50,His6-LPL-HA-FLAG [5],18 nM
ANGPTL3(17–460)-FLAG-His6-Avi (natural protein) SRIDQDNSSFDSLSPEPKSRFAMLDDVKILANGLLQLGHGLKDFVHKTKGQINDIFQKLNIFDQSFYDLSLQTSEIKEEEKELRRTTYKLQVKNEEVKNMSLELNSKLESLLEEKILLQQKVKYLEEQLTNLIQNQPETPEHPEVTSLKTFVEKQDNSIKDLLQTVEDQYKQLNQQHSQIKEIENQLRRTSIQEPTEISLSSKPRAPRTTPFLQLNEIRNVKHDGIPAECTTIYNRGEHTSGMYAIRPSNSQVFHVYCDVISGSPWTLIQHRIDGSQNFNETWENYKYGFGRLDGEFWLGLEKIYSIVKQSNYVLRIELEDWKDNKHYIEYSFYLGNHETNYTLHLVAITGNVPNAIPENKDLVFSTWDHKAKGHFNCPEGYSGGWWWHDECGENNLNGKYNKPRAKSKPERRRGLSWKSQNGRLYSIKSTKMLIHPTDSESFE,"IC50 of ANGPTL3-mediated inactivation of 10 nM coexpressed LPL/GPIHBP1 complex, hydrolysis of VLDL",[2],300 nM
same,"IC50 of ANGPTL3-mediated inactivation of 10 nM LPL alone, hydrolysis of VLDL",[3],8 nM
same,IC50,His6-LPL-HA-FLAG [4],100 nM
B1,IC50,His6-LPL-HA-FLAG [6],15 nM
same,binding result,His6-LPL-HA-FLAG [7],binds
"Soluble GPIHBP1(21–151), untagged (domain or fragment, human, human GPIHBP1, soluble fragment of residues 21–151 (part of the extracellular domain); also called untagged GPIHBP1) QTQQEEEEEDEDHGPDDYDEEDEDEVEEEETNRLPGGRSRVLLRCYTCKSLPRDERCNLTQNCSHGQTCTTLIAHGNTESGLLTTHSTWCTDSCQPITKTVEGTQVTMTCCQSSLCNVPPWQSSRVQDPTG",stoichiometry N,[8],1
B2,binding result,[9],binds
B3,binding result,[10],binds
